US20050158799A1 (published 2005)

Biological target: T1, TLR3-YFP (Toll-Like Receptor 3 fused to yellow fluorescent polypeptide), stably expressed in HELA cells (UniProt O15455 24-904)
T1 construct: Immunoprecipitated from whole cell lysates with anti-GFP antibody; not shown: yellow fluorescent polypeptide (YFP)
T1 sequence (looked up): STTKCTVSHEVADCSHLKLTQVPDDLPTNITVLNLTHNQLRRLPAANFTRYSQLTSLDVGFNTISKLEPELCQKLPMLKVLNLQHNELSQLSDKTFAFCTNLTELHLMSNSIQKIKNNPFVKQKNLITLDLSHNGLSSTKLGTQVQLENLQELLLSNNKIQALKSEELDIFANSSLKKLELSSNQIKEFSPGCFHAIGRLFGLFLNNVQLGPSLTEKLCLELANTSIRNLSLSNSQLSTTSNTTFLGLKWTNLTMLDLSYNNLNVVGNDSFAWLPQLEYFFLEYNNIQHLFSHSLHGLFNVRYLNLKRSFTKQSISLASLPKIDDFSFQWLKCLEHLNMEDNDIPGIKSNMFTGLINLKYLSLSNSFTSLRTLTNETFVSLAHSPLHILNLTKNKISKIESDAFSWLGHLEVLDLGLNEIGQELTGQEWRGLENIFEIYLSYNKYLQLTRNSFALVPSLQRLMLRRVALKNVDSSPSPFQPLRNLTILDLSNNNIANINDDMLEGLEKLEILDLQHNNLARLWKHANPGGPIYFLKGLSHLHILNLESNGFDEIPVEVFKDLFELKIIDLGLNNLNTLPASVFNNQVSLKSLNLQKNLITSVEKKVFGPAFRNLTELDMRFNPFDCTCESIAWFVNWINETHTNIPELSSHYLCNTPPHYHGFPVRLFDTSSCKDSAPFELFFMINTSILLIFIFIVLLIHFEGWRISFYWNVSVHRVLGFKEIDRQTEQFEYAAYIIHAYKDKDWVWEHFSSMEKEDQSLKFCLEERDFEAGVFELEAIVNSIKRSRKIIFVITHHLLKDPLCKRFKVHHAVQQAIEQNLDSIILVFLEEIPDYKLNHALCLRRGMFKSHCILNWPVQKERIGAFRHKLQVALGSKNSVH
Assay: co-immunoprecipitation from TLR3-YFP HELA cell lysates with anti-GFP, blot for Flag
Method: 293T cells or TLR-expressing cells (10 cm plates) were transfected using GeneJuice (Novagen) with 4 μg of the indicated plasmids. One to two days after transfection, the cells were lysed in 1 ml of lysis buffer (20 mM Tris-HCl, 2 mM EDTA, 137 mM NaCl, 0.5% Triton X-100, 10% glycerol with protease inhibitors). Polyclonal anti-GFP (Molecular Probes), anti-IRF-3 or anti-CBP antibodies were incubated overnight with the cell lysates in […]. The immune complexes were precipitated and subjected to 4-15% SDS-PAGE and immunoblotted for FLAG- or CFP/YFP-tagged adapters using the anti-Flag mAb M2 (Sigma), or anti-GFP mAb (Clontech), which also recognizes the spectral variants of GFP.
Co-immunoprecipitation studies were performed to determine if TRAM interacts with TLR4. Stable TLR4^YFP- or TLR3^YFP-expressing HELA cells were transiently transfected with 4 μg of plasmid encoding Flag-Mal, Flag-TRAM or Flag TRAM-C117H. Forty-eight hours after transfection, whole cell lysates were immunoprecipitated with anti-GFP antibody and immunoprecipitated complexes immunoblotted for Flag-tagged adapters and co-immunoprecipitation experiments performed.

B1: Flag-tagged Mal (MyD88 adaptor-like; TIRAP) (other, UniProt P58753-2 1-235, looked up)
chain: MASSTSLPAPGSRPKKPLGKMADWFRQTLLKKPKKRPNSPESTSSDASQPTSQDSPLPPSLSSVTSPSLPPTHASDSGSSRWSKDYDVCVCHSEEDLVAAQDLVSYLEGSTASLRCFLQLRDATPGGAIVSELCQALSSSHCRVLLITPGFLQDPWCKYQMLQALTEAPGAEGCTIPLLSGLSRAAYPPELRFMYYVDGRGPDGGFRQVKEAVMRCKLLQEGEGERDSATVSDLL
notes: pEF-Bos-Flag Mal as described in Fitzgerald et al; also called Flag-Mal; pEF-Bos-Flag Mal; not shown: Flag tag
  binding result: no binding
